Test results from IntAct's records for PubMed 19696444.

B1: Anosmin-1 (Homo sapiens), P23352 (parent)
chain: MVPGVPGAVLTLCLWLAASSGCLAAGPGAAAARRLDESLSAGSVQRARCASRCLSLQITRISAFFQHFQNNGSLVWCQNHKQCSKCLEPCKESGDLRKHQCQSFCEPLFPKKSYECLTSCEFLKYILLVKQGDCPAPEKASGFAAACVESCEVDNECSGVKKCCSNGCGHTCQVPKTLYKGVPLKPRKELRFTELQSGQLEVKWSSKFNISIEPVIYVVQRRWNYGIHPSEDDATHWQTVAQTTDERVQLTDIRPSRWYQFRVAAVNVHGTRGFTAPSKHFRSSKDPSAPPAPANLRLANSTVNSDGSVTVTIVWDLPEEPDIPVHHYKVFWSWMVSSKSLVPTKKKRRKTTDGFQNSVILEKLQPDCDYVVELQAITYWGQTRLKSAKVSLHFTSTHATNNKEQLVKTRKGGIQTQLPFQRRRPTRPLEVGAPFYQDGQLQVKVYWKKTEDPTVNRYHVRWFPEACAHNRTTGSEASSGMTHENYIILQDLSFSCKYKVTVQPIRPKSHSKAEAVFFTTPPCSALKGKSHKPVGCLGEAGHVLSKVLAKPENLSASFIVQDVNITGHFSWKMAKANLYQPMTGFQVTWAEVTTESRQNSLPNSIISQSQILPSDHYVLTVPNLRPSTLYRLEVQVLTPGGEGPATIKTFRTPELPPSSAHRSHLKHRHPHHYKPSPERY

Variants of: B1
Conditions: with fgfr1_human FGFR1, P11362
Chain of fgfr1_human FGFR1, P11362 (P11362 whole entry, looked up): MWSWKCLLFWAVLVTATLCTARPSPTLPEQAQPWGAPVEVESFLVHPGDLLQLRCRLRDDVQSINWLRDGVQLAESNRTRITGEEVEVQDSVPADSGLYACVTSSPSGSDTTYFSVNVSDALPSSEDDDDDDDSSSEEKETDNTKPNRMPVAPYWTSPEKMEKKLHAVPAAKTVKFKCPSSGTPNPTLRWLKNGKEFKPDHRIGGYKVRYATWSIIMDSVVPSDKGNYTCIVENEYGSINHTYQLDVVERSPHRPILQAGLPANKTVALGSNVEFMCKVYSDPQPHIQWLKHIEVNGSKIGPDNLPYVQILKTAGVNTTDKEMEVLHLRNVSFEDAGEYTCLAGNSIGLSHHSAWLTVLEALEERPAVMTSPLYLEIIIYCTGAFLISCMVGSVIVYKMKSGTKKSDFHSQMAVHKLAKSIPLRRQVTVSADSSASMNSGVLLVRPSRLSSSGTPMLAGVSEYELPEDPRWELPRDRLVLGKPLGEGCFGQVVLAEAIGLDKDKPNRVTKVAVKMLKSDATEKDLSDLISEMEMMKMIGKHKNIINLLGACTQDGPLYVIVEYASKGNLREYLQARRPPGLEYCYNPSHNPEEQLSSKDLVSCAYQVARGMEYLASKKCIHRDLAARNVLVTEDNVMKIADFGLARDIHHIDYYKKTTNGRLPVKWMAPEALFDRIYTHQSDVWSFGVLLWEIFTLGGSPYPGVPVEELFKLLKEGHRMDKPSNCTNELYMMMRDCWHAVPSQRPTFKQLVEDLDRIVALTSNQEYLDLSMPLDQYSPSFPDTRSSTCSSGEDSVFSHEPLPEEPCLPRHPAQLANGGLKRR

N267K was tested. Which “effect of a mutation on the interaction” value did it give?
The value was “disrupting interaction”.
